Test results reported in US20240392013A1 (STELEXIS THERAPEUTICS, published 2024).
Changes are numbered by the printed parent chain. Each block holds one binder with its values, some of them ahead of it.

Columns and labels:
[1] = target: T1, cyIL1RAP-His (Lake Pharma) (cynomolgus monkey, UniProt A0A2K5X5J5 21-367); test: Octet BLI; mAb captured on anti-mouse IgG Fc sensor; cyIL1RAP-His analyte
T1 construct: Bought protein (Lake Pharma, lot 16205819371); also called cynomolgus IL1RAP; monkey IL1RAP; not shown: His tag
T1 sequence: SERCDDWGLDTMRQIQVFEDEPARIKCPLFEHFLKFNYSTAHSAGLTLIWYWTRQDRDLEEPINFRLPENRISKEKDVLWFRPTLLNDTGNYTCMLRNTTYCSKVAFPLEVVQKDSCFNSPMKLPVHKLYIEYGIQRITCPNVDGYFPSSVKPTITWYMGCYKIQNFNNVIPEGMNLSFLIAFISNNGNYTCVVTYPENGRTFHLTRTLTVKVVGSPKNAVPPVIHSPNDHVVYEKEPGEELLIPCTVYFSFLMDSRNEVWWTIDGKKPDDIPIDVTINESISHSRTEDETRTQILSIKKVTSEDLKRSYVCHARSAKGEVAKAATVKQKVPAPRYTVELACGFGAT
Description: (§1) Antibodies were diluted in kinetics buffer (0.1% BSA, 0.02% Tween-20 and 0.05% NaN₃ in PBS) and loaded onto 16 channel anti-mouse IgG Fc capture sensors (AMC, Cat #2001073; Sartorius, Göttingen, Germany). Human, huIL1RAP-His (Sino Biological, lot: MB08MA1301), and monkey, cyIL1RAP-His (Lake Pharma, NY, USA; lot:16205819371) proteins were titrated starting from the highest concentration of 100 nM and followed by 50 nM and 25 nM. Purified antibodies were loaded at 5 μg/ml in kinetics buffer. The experimental parameters selected to determine the kinetic constants were Baseline for 60 s, Loading of antibody to sensor for 180 s, Association of analyte to antibody for 120 s, Dissociation for 1200 s and Regeneration in 10 mM Glycine pH 1.7 for 4×30 s.
(§2) Regeneration cycle tracking was selected for 12 cycles. Binding to human and cynomolgus IL1RAP was measured and KD (M) kinetics were calculated. Also, the disassociation rate (Kdis) (1/s) and association rate (Kon) (1/Ms) kinetics were calculated (data not shown).

[2] = target: T2, IL1RAP on HEK-Blue IL1β / HEK-Blue IL33 reporter cells (UniProt Q9NPH3 21-570, limits assumed); test: cell-based or functional assay
T2 sequence (looked up): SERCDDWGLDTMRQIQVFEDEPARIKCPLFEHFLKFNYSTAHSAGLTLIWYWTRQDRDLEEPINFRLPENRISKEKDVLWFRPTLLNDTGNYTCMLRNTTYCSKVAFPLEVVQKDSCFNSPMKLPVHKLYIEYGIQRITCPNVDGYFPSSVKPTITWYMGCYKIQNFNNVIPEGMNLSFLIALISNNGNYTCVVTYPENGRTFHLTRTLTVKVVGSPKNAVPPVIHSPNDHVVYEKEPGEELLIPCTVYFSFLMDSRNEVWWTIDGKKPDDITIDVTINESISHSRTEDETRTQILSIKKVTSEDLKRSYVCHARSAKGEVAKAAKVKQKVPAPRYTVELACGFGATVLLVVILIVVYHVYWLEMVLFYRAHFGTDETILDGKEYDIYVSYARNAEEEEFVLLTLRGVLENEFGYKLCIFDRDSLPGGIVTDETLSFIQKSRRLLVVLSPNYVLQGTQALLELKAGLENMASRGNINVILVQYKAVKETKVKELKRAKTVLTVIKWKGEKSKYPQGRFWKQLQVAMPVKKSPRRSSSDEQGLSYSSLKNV

[3] = target: T3, recombinant mouse IL1RAP protein (Sino Biological, Cat #52657-M08H) (mouse, UniProt Q61730 21-359); test: cell-free ELISA, mouse IL1RAP coated; data not shown
T3 construct: Bought protein
T3 sequence (looked up): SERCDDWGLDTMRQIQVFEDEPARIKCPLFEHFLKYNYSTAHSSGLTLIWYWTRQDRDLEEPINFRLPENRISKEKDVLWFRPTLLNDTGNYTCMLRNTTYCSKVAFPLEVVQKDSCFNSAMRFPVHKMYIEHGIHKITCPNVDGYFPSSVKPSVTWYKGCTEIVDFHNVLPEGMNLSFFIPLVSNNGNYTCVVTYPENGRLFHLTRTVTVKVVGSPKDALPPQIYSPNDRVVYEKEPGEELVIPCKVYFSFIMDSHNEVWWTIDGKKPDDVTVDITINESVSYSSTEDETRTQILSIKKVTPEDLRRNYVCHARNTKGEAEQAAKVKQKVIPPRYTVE
Description: Recombinant human or mouse IL1RAP proteins (Sino Biological, Beijing, China; Cat #10121-H08H and Sino Biological, Cat #52657-M08H respectively) were diluted in PBS, pH 7.4 at concentration of 1 μg/ml, coated on high-binding 384-well clear plates and incubated overnight at 4° C. Following, plates were washed 3× with 0.05% Tween-20 in PBS, pH 7.5 and then blocked with 1% BSA in PBS for 1 hour at room temperature. After 3× washes, wells were incubated with each antibody at the highest concentration of 100 nM followed by seven serial half log dilutions (in 1% BSA and 0.05% Tween-20 in PBS) for 1 hour at room temperature. Plates were then washed 3× and incubated with […] detection antibody (Medna, TX, USA; Cat #D8212, 0.5 μg/ml diluted in 0.02% Tween-20 in PBS). After 5× washes, Supersignal ELISA Pico substrate (Thermofisher, MA, USA; Cat #37069) was applied to wells and chemiluminescent signal was read on Sprectramax L for 200 ms/well. Similarly, detection with specific κ and λ antibodies was conducted to define light chain isotyping.

[4] = target: T4, recombinant human IL1RAP protein, extracellular domain His-tagged (Sino Biological, Cat #10121-H08H) (human, UniProt Q9NPH3 21-367); test: Octet BLI; mAb captured on anti-mouse IgG Fc sensor; huIL1RAP-His analyte
T4 construct: extracellular domain; Bought protein; The Octet analyte is printed as huIL1RAP-His (Sino Biological, lot MB08MA1301) without a catalogue number; also called huIL1RAP-His; hIL1RAP; not shown: His tag
T4 sequence (looked up): T1 sequence with F183L, P273T, T326K
Description: as §1, §2

[5] = target: T2, IL1RAP on HEK-Blue IL1β / HEK-Blue IL33 …; test: cell-based or functional assay; remark: listed apart in the source

B1: STLX2027 (antibody, V domains shown)
VH: EVQLVESGGGLVKPGGSLRLSCAASGFTFITYSMNWVRQAPGKGLEWVSSISSISSYIYYADSVKGRFTISRDNAKNSLYLQMDSLRAEDSAVYYCAREGIVGPTGYFDSWGQGTLVTVSS
VL: QSVLTQPPSVSAAPGQKVTISCSGSSSNIGNHYVSWYQQLPGTAPKLLIYDNNKRPSGIPDRFSGSKSGTSATLGITGLQTGDEADYYCGTWDSRLSAYWVFGGGTKLTVL
notes: Purified from hybridoma of immunized Alivamab mice; intact IgG; captured on anti-mouse IgG Fc sensors in Octet; lambda light chain; also called 74804_27I24A
Kd [1]: 2.82 nM | Response [1]: 0.242 | koff [1]: 0.00107 s⁻¹ | kon [1]: 380000 M⁻¹ s⁻¹ | IC50, HEK-BlueIL33 NFκB Reporter Assay [2]: 8.31e-09 M (implied; unit not printed) | Max % Inhibition at 200 nM, HEK-BlueIL33 NFκB Reporter Assay [2]: 86% | binding result [3]: no binding (tested: 100 nM) | Kd [4]: 2.13 nM | Response [4]: 0.229 | koff [4]: 0.000747 s⁻¹ | kon [4]: 350000 M⁻¹ s⁻¹ | IC50, HEK-BlueIL1β NFκB Reporter Assay [5]: 1.96e-09 M (implied; unit not printed) | Max % Inhibition at 200 nM, HEK-BlueIL1β NFκB Reporter Assay [5]: 100%

B2: STLX2001N (antibody, V domains shown)
VH: EVQLVQSGAEVKKPGESLKISCKGSGYSFTSYWIVWVRQMPGKGLEWMGFIYPGNSDTRYSPSFQGQVTISADQSISTAYLQWSSLKASDTATYYCARGGSYYLDYWGQGTLVTVSS
VL: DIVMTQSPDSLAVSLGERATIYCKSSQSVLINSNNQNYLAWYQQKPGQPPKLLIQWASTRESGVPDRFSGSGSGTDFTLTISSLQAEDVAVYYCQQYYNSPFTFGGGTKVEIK
notes: Purified from hybridoma of immunized Alivamab mice; intact IgG; captured on anti-mouse IgG Fc sensors in Octet; kappa light chain; also called 74804_01N02A
Kd [1]: 1.23 nM | Response [1]: 0.342 | koff [1]: 0.000413 s⁻¹ | kon [1]: 334000 M⁻¹ s⁻¹ | IC50, HEK-BlueIL33 NFκB Reporter Assay [2]: 1.7e-08 M (implied; unit not printed) | Max % Inhibition at 200 nM, HEK-BlueIL33 NFκB Reporter Assay [2]: 87% | binding result [3]: no binding (tested: 100 nM) | Kd [4]: 0.803 nM | Response [4]: 0.308 | koff [4]: 0.000233 s⁻¹ | kon [4]: 290000 M⁻¹ s⁻¹ | IC50, HEK-BlueIL1β NFκB Reporter Assay [5]: 1.72e-09 M (implied; unit not printed) | Max % Inhibition at 200 nM, HEK-BlueIL1β NFκB Reporter Assay [5]: 101%

Further lines, results first:

Kd [1]: 1.68 nM | Response [1]: 0.223 | koff [1]: 0.00206 s⁻¹ | kon [1]: 1.23e+06 M⁻¹ s⁻¹ | IC50, HEK-BlueIL33 NFκB Reporter Assay [2]: 8.12e-09 M (implied; unit not printed) | Max % Inhibition at 200 nM, HEK-BlueIL33 NFκB Reporter Assay [2]: 73% | binding result [3]: no binding (tested: 100 nM) | Kd [4]: 1.23 nM | Response [4]: 0.268 | koff [4]: 0.000684 s⁻¹ | kon [4]: 558000 M⁻¹ s⁻¹ | IC50, HEK-BlueIL1β NFκB Reporter Assay [5]: 7.92e-10 M (implied; unit not printed) | Max % Inhibition at 200 nM, HEK-BlueIL1β NFκB Reporter Assay [5]: 98%
B3: STLX2044 (antibody, V domains shown)
VH: QVQLQESGPGLVKPSETLSLTCTVSGGSVFSYFWNWIRQPPVKGLEWIGYIDHSGGTNYNPSLKSRVTMSVDTSKNQFSLKLSSVTAADTAVYYCAREGLHDAFDIWGQGTLVTVSS
VL: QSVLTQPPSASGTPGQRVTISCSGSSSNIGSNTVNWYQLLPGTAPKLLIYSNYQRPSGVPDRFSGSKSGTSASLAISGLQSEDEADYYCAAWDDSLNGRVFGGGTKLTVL
notes: Purified from hybridoma of immunized Alivamab mice; intact IgG; captured on anti-mouse IgG Fc sensors in Octet; lambda light chain; also called 74804_44J14A

Kd [1]: 3.94 nM | Response [1]: 0.199 | koff [1]: 0.004 s⁻¹ | kon [1]: 1.01e+06 M⁻¹ s⁻¹ | IC50, HEK-BlueIL33 NFκB Reporter Assay [2]: 7.66e-09 M (implied; unit not printed) | Max % Inhibition at 200 nM, HEK-BlueIL33 NFκB Reporter Assay [2]: 76% | binding result [3]: no binding (tested: 100 nM) | Kd [4]: 0.834 nM | Response [4]: 0.257 | koff [4]: 0.000411 s⁻¹ | kon [4]: 493000 M⁻¹ s⁻¹ | IC50, HEK-BlueIL1β NFκB Reporter Assay [5]: 8.05e-10 M (implied; unit not printed) | Max % Inhibition at 200 nM, HEK-BlueIL1β NFκB Reporter Assay [5]: 100%
B4: STLX2016 (antibody, V domains shown)
VH: QVQLQESGPGLVKPSETLSLTCTVSGGSISSYFWNWIRQPPGKGLEWIGYGHYSGNSNHNPSLKSRVTISVDMSKNQFSLKMSSVTAADTAMYYCAREGLHDAFDIWGQGTMVTVSS
VL: not shown
notes: Purified from hybridoma of immunized Alivamab mice; intact IgG; captured on anti-mouse IgG Fc sensors in Octet; lambda light chain; also called 74804_16M09A
